Test results published in the Human Domainome abundance scans (Beltran et al. 2025).
± gives the uncertainty stated by the source.

B1: DnaJ homolog subfamily C member 5, residues 16 to 77; numbered along this chain, Q9H3Z4 (parent)
chain: LYHVLGLDKNATSDDIKKSYRKLALKYHPDKNPDNPEAADKFKEINNAHAILTDATKRNIYD

Variants of: B1
Assay: abundance fitness (aPCA) (normalised: wild type 0, dead -1); higher = more abundant; growth selection in yeast, the domain comes from the species named
Details: Homo sapiens

Abundance fitness, by site and new letter:
D34: L -0.641 ± 0.07; F -1.01 ± 0.12; H -0.411 ± 0.2; K -0.006 ± 0.1; Y -0.355 ± 0.095; N -0.299 ± 0.086; V -0.591 ± 0.056; W -0.944 ± 0.12; E -0.079 ± 0.085; T -0.257 ± 0.096; C -0.783 ± 0.12; Q -0.206 ± 0.089; M -0.694 ± 0.12; G 0.068 ± 0.073; I -0.586 ± 0.17; A -0.145 ± 0.074; P -0.623 ± 0.1; R -0.251 ± 0.074
D40: A 0.137 ± 0.086; Q -0.03 ± 0.22; R 0.271 ± 0.071; P -0.258 ± 0.11; I 0.224 ± 0.13; N -0.271 ± 0.47; V 0.194 ± 0.082; Y -0.05 ± 0.16; W 0.046 ± 0.084; E -0.171 ± 0.11; L 0.212 ± 0.085; H 0.156 ± 0.15; F 0.029 ± 0.18; K 0.385 ± 0.11; M 0.255 ± 0.11; C -0.012 ± 0.095; T 0.054 ± 0.085
K43: S -0.043 ± 0.19; R -0.263 ± 0.15; M 0.382 ± 0.25; P -1.02 ± 0.34; H 0.519 ± 0.48; N -0.23 ± 0.3; Q 0.362 ± 0.17; E -0.34 ± 0.18; G -0.116 ± 0.11; T 0.051 ± 0.2; A 0.299 ± 0.17; W -0.276 ± 0.15; F 0.349 ± 0.17; D 0.015 ± 0.3; Y 0.364 ± 0.29
A48: M -1.06 ± 0.24; D -0.16 ± 0.27; Q -0.82 ± 0.18; V -0.777 ± 0.099; H -0.477 ± 0.2; G -0.455 ± 0.095; W -1.58 ± 0.21; F -1.72 ± 0.41; S -0.277 ± 0.098; P -0.384 ± 0.16; I -0.769 ± 0.14; N -0.903 ± 0.14; T -0.777 ± 0.16; C -0.85 ± 0.16; E -0.387 ± 0.12; Y -0.748 ± 0.31
A55: C -0.37 ± 0.18; I -0.406 ± 0.39; H -0.287 ± 0.26; G -0.151 ± 0.076; F -0.334 ± 0.17; E -0.061 ± 0.061; K -0.002 ± 0.18; D -0.514 ± 0.37
P33: Y -0.34 ± 0.09
D54: G -0.304 ± 0.088; C -0.499 ± 0.2; Q -0.666 ± 0.22; W -0.907 ± 0.21; N 0.044 ± 0.13; M -0.634 ± 0.14; V -0.613 ± 0.11; K -0.056 ± 0.19; R -0.382 ± 0.095; T -0.512 ± 0.16; L -0.632 ± 0.1; A -0.214 ± 0.14; F -1.01 ± 0.21; E -0.278 ± 0.11; Y -1.01 ± 0.22
T53: L -0.032 ± 0.054; P -0.678 ± 0.083; Q -0.186 ± 0.083; S -0.116 ± 0.074; K -0.011 ± 0.086; D -0.093 ± 0.13; R -0.127 ± 0.057; E -0.277 ± 0.076; W -0.579 ± 0.077; I -0.286 ± 0.087; M -0.157 ± 0.074; G 0.07 ± 0.065; C -0.126 ± 0.14; N 0.101 ± 0.15; F -0.491 ± 0.13; A -0.118 ± 0.072
E44: R -0.435 ± 0.061; P -0.626 ± 0.1; D -0.154 ± 0.1; V -0.264 ± 0.073; F -0.744 ± 0.12; Q -0.301 ± 0.13; K -0.376 ± 0.096; N -0.196 ± 0.12; A -0.135 ± 0.086; S -0.3 ± 0.067; L -0.504 ± 0.063; M -0.097 ± 0.11; C -0.524 ± 0.12; W -0.731 ± 0.14; T -0.518 ± 0.096; I -0.73 ± 0.19; G -0.527 ± 0.098; Y -0.742 ± 0.2
L52: M -0.395 ± 0.11; E -0.293 ± 0.12; C -0.963 ± 0.26; W -0.454 ± 0.11; Q -0.572 ± 0.1; G -0.555 ± 0.094; T -0.446 ± 0.081; V -0.524 ± 0.085; P -0.292 ± 0.12; H -0.767 ± 0.26; S -0.493 ± 0.098; F -0.295 ± 0.39; A -0.303 ± 0.12; D -0.381 ± 0.16; I -0.592 ± 0.23; K -0.419 ± 0.098; R -0.479 ± 0.079; N -1.02 ± 0.42
A39: E -0.14 ± 0.084; P -0.301 ± 0.19; D 0.033 ± 0.13; R -0.021 ± 0.068; K 0.095 ± 0.092; G -0.032 ± 0.062; N 0.003 ± 0.13; I 0.064 ± 0.16; S -0.176 ± 0.086; Y 0.082 ± 0.14; M -0.126 ± 0.14; C 0.01 ± 0.11; F -0.56 ± 0.2; Q -0.227 ± 0.11; L 0.014 ± 0.083; T -0.427 ± 0.21; V -0.01 ± 0.082
N47: R -0.142 ± 0.28; S -0.259 ± 0.49
A50: W -0.748 ± 0.13; L -0.386 ± 0.083; R -0.009 ± 0.059; V -0.19 ± 0.065; S 0.059 ± 0.078; E -0.562 ± 0.12; H -0.237 ± 0.14; M -0.087 ± 0.089; T -0.072 ± 0.1; K -0.091 ± 0.11; Q -0.294 ± 0.11; G -0.198 ± 0.071; C -0.688 ± 0.21; Y -0.604 ± 0.17; I -0.334 ± 0.13; F -0.61 ± 0.15; P -0.773 ± 0.1
I45: A -0.181 ± 0.076; T -0.216 ± 0.086; Y -0.366 ± 0.14; Q -0.45 ± 0.091; L -0.026 ± 0.063; C -0.44 ± 0.11; S -0.47 ± 0.065; F -0.747 ± 0.13; R -0.623 ± 0.068; W -0.841 ± 0.089; H -0.792 ± 0.15; G -0.253 ± 0.063; V 0.007 ± 0.065; K -0.263 ± 0.093; N -0.381 ± 0.18; M -0.418 ± 0.084; D -0.311 ± 0.2; P -0.425 ± 0.13; E -0.203 ± 0.083
F42: I -0.135 ± 0.05; R -0.17 ± 0.059; E -0.192 ± 0.11; A -0.28 ± 0.076; S -0.219 ± 0.097; V -0.197 ± 0.065; G -0.278 ± 0.07; H -0.421 ± 0.17; D -0.119 ± 0.1; Q -0.233 ± 0.078; W -0.05 ± 0.073; Y -0.017 ± 0.18; K -0.188 ± 0.12; P -0.41 ± 0.099; N -0.237 ± 0.096; C -0.243 ± 0.11; L 0.202 ± 0.061; M 0.223 ± 0.1
N35: Q -0.265 ± 0.1; E -0.235 ± 0.094; W -0.317 ± 0.095; T -0.143 ± 0.086; I -0.255 ± 0.14; K -0.194 ± 0.11; R -0.282 ± 0.082; C -0.462 ± 0.19; S -0.041 ± 0.089; V -0.255 ± 0.061; F -0.309 ± 0.17; M -0.431 ± 0.088; A -0.184 ± 0.082; G -0.281 ± 0.072; H -0.197 ± 0.094
H49: M -0.002 ± 0.11; S -0.279 ± 0.088; Q -0.161 ± 0.15; W -0.153 ± 0.095; E -0.362 ± 0.14; F 0.149 ± 0.085; Y -0.251 ± 0.13; D -0.4 ± 0.13; L -0.291 ± 0.065; T -0.26 ± 0.098; P -0.423 ± 0.11; R 0.029 ± 0.078; V -0.091 ± 0.088; I -0.639 ± 0.13; N -0.062 ± 0.17; G -0.052 ± 0.066; A 0.009 ± 0.099; C -0.405 ± 0.15; K -0.032 ± 0.096
I51: G -0.257 ± 0.094; D 0.123 ± 0.2; C -0.142 ± 0.1; E -0.301 ± 0.16; V 0.106 ± 0.085; L -0.149 ± 0.061; R -0.318 ± 0.064; Y -0.353 ± 0.25; S -0.262 ± 0.1; P -0.166 ± 0.087; T -0.08 ± 0.084; F -0.326 ± 0.23; N -0.304 ± 0.13; Q 0.036 ± 0.11; W -0.712 ± 0.14; M -0.131 ± 0.1; A -0.146 ± 0.11
E37: P -0.441 ± 0.12; W -0.171 ± 0.068; N 0.042 ± 0.17; T -0.011 ± 0.071; R -0.117 ± 0.05; M -0.217 ± 0.13; C -0.206 ± 0.074; D -0.238 ± 0.13; S 0.036 ± 0.069; Q 0.079 ± 0.081; H 0.004 ± 0.18; F -0.01 ± 0.09; V 0.041 ± 0.054; L -0.172 ± 0.062; Y -0.226 ± 0.11; I -0.406 ± 0.17; G -0.063 ± 0.059
N46: R -0.017 ± 0.072; E 0.093 ± 0.12; Y -0.312 ± 0.45; M -0.113 ± 0.1; D -0.578 ± 0.24; I -0.178 ± 0.16; F -0.065 ± 0.18; T 0.256 ± 0.092; G -0.082 ± 0.084; C 0.174 ± 0.2; Q -0.035 ± 0.17; V 0.182 ± 0.085; A 0.272 ± 0.12; L -0.169 ± 0.097; K -0.058 ± 0.14; P -0.653 ± 0.13; H -0.081 ± 0.11; W -0.778 ± 0.13
A38: Q -0.371 ± 0.12; W -0.305 ± 0.073; F -0.194 ± 0.15; E -0.193 ± 0.14; R -0.279 ± 0.063; I -0.043 ± 0.12; L -0.243 ± 0.069; S -0.088 ± 0.092; T -0.292 ± 0.11; Y -0.132 ± 0.14; H -0.169 ± 0.13; P -0.559 ± 0.14; D -0.137 ± 0.099; K -0.338 ± 0.12; N -0.296 ± 0.17; C -0.401 ± 0.16; M -0.13 ± 0.097
K41: T -0.197 ± 0.11; Q -0.333 ± 0.12; Y -0.254 ± 0.21; G -0.433 ± 0.064; S -0.223 ± 0.12; V -0.278 ± 0.063; A -0.222 ± 0.064; I -0.211 ± 0.14; R -0.119 ± 0.073; W -0.4 ± 0.095; F -0.447 ± 0.17; E -0.311 ± 0.08; P -1.1 ± 0.15; C -0.598 ± 0.21; D -0.493 ± 0.14; N -0.434 ± 0.2
